Data set [1] addresses T1, PHD2 (prolyl-hydroxylase domain, residues 181–426) (Homo sapiens, UniProt Q9GZT9).
T1 construct: encodes for His6-PHD2 (prolyl-hydroxylase domain, residues 181–426); His6 (N, cleaved yes); made in house; host or cells: E. coli BL21(DE3)
The data set can be described thus: Microscale thermophoresis (MST) binding of HIFα-CODD peptides to the catalytic domain of PHD2. The settings on record: for Binding to PHD2 (in words): 25 nM PHD2-647, with NOG, room temperature; for Kd (MST-determined PHD2/HIFα-CODD complex dissociation constant): 25 nM Alexa 647-labeled PHD2, Tris–HCl with NOG (1 mM NOG, 10 µM FeSO4, 5 mg/ml BSA in 2x MST Buffer pH 7.5), peptide in Tris pH 8.0, room temperature, 10 min incubation, 1:1 Kd model, triplicate measurements, highest concentration omitted for Y532H and P531A (aggregation). As to the method:
To determine if there is a direct effect of HIF2α mutations on PHD2 binding, we devised a quantitative method for determining the dissociation constant (Kd) of the HIF2α-CODD peptides and the catalytic domain of PHD2 using microscale thermophoresis (MST)[13],[14] in the presence of the PHD inhibitor n-oxalylglycine (NOG) to inhibit reaction turnover.
PHD2 was purified via a previously described but modified procedure[4],[30]. […] Cells were grown to an OD600 of 0.8 at 37 °C and expression of His6-PHD2 was induced with a final concentration of 0.5 mM IPTG. Cells were grown for an additional 3 h post-induction at 37 °C and harvested via centrifugation. Cell pellets were either used immediately for purification or stored at −80 °C for later use. Cell pellets were resuspended in Lysis Buffer (50 mM Tris–HCl pH 7.9, 500 mM NaCl, 5 mM Imidazole) containing 1x SigmaFast protease inhibitor cocktail (Sigma-Aldrich) and lysed with 3 passes through an Emulsiflex-C3 cell disruptor (Avestin) at 20-30 kPSI. […] Clarified lysates were applied to a 2 ml Ni-NTA (Thermo Scientific) column pre-equilibrated with Lysis Buffer. The beads were washed with 10 ml Lysis buffer and 2 × 30 ml of Wash Buffer (50 mM Tris–HCl pH 7.9, 500 mM NaCl, 30 mM Imidazole). His6-PHD2 was eluted by applying 10 ml Elution Buffer (50 mM Tris–HCl pH 7.9, 500 mM NaCl, 1 M Imidazole) to the column. Ni-NTA purified His6-PHD2 was dialyzed using a 10 kDa cut-off dialysis membrane against 2 L of Dialysis Buffer (50 mM Tris–HCl pH 7.5) for 4 h at 4 °C. […] Dialysis and thrombin cleavage were allowed to continue overnight at 4 °C. Thrombin-cleaved PHD2 was collected and applied to a 2 ml Ni-NTA column pre-equilibrated with Dialysis Buffer to remove uncleaved protein and cleaved His6 tags. The flow-through was collected and the beads were washed with 10 ml of Dialysis Buffer supplemented with 5 mM imidazole. The 5 mM imidazole eluate was pooled with the flow through and concentrated with an Amicon 10 kDa cut-off centrifugal concentrator (Millipore) to a volume of ~600 µl. The concentrated PHD2 was then applied to a Superdex 75 Increase 10/300 GL column (Cytiva) equilibrated with Dialysis Buffer or Labeling Buffer (50 mM HEPES pH 7.5, 150 mM NaCl) depending on the intended use of the sample. Eluted fractions containing PHD2 were collected and pooled. For the His6-PHD2 used in the indirect hydroxylation assay, no thrombin was added during dialysis steps therefore the His6-tag was not removed and the subsequent passage of the sample through Ni-NTA beads to remove His6-tags was not performed. Otherwise, the purification protocol for His6-PHD2 is the same as thrombin-cleaved PHD2. All purification steps were analyzed by SDS–PAGE and the Superdex 75 Increase chromatogram was used to assess size and aggregation, see Supplementary Fig. 5 for a representative purification assessment.
Labeling was conducted at room temperature for 1 h in the dark. Excess dye was then removed first by the passage of the sample through a PD-10 desalting column containing Sephadex G-25 resin (Cytiva) equilibrated with Dialysis Buffer and then any remaining excess dye was removed via repeated 10-fold dilution in Dialysis Buffer and subsequent concentration in an Amicon 10 kDa cut off centrifugal filter until the dye could no longer be detected in the concentrator flow through by Absorbance at 650 nm.
MST measurements were taken using a Monolith NT.115 (Nanotemper Technologies) at room temperature using standard MST capillaries (Nanotemper Technologies). […] For each HIFα-CODD peptide, ~1 mg dry weight of peptide was dissolved in 200 µl of 50 mM Tris–HCl pH 8.0 and concentrations were measured using UV absorbance at 280 nm for most peptides and BCA assay (Thermo Scientific) for Y532C and Y532H peptides using known concentrations of the WT HIF2α-CODD peptide to create a standard curve.
For orientation: MST reads how a fluorescent partner responds to local heating, with and without ligand.

Data set [2] deals with T1, PHD2 (prolyl-hydroxylase domain, residues 181–426). Nature of the data set: Aggregation of PHD2 by HIF2α-CODD peptides in MST experiments (MST time traces). Format: physicochemical. The settings on record: peptide dilution series with PHD2, room temperature. As to the method:
MST measurements were taken using a Monolith NT.115 (Nanotemper Technologies) at room temperature using standard MST capillaries (Nanotemper Technologies). A 2x stock of PHD2-647 was created by diluting PHD2-647 from a 10 µM stock to 50 nM with MST Buffer (50 mM Tris–HCl pH 7.5, 1 mM NOG, 10 µM FeSO4, 5 mg/ml BSA). For each HIFα-CODD peptide, ~1 mg dry weight of peptide was dissolved in 200 µl of 50 mM Tris–HCl pH 8.0 and concentrations were measured using UV absorbance at 280 nm for most peptides and BCA assay (Thermo Scientific) for Y532C and Y532H peptides using known concentrations of the WT HIF2α-CODD peptide to create a standard curve. The UV absorbance extinction coefficients for all HIF1α-CODD and HIF2α-CODD peptides used in this study is 1490 M^−1 cm^−1 except for HIF2α-CODD D539Y (2980 M^−1 cm^−1), HIF2α-CODD G537W (6990 M^−1 cm^−1) and HIF2α-CODD Y532C and Y532H which were not analyzed via absorbance at 280 nm due to the lack of any Tyrosine or Tryptophan residues in the peptides. For each experiment, 16 different concentrations of 15 µl peptide solution were created by 2-fold serial dilution of the peptide stock in 50 mM Tris–HCl pH 8.0. Each of the 16 peptide solutions was then mixed with an equal volume (15 µl) of 2× PHD2-647 solution resulting in a final 1× concentration of PHD2-647 at 25 nM. […] MST measurements were taken at 20% fluorescence excitation LED power and 40% (medium) infrared laser power. For each MST time trace initial fluorescence (pre-infrared laser activation) was recorded for 5 s, infrared laser on time was 20 s, and fluorescence post-infrared laser deactivation was recorded for 3 s. MST data was analyzed using the M.O. Affinity Analysis software (Nanotemper Technologies) and the 1:1 Kd binding model was fit to experimental data. […]
(also on this page, place not known: Relative Fluorescence Relative Fluorescence -10 30 Relative Fluorescence -10 30 Relative Fluorescence -10 30 Relative Fluorescence -10 30 Relative Fluorescence aggrega?on, (f) curves HIF2α-CODD)

For another data set, the system named is PHD. The settings on record: cited from earlier work. The text has this: (§1) Pacak-Zhuang syndrome is a pseudohypoxic disease resulting from the inappropriate stabilization of HIF2α under normoxic conditions caused by gain-of-function missense mutations in the CODD region of HIF2α. These missense mutations stabilize HIF2α by ultimately inhibiting proteasome-mediated destruction of HIF2α[2],[6],[21]. Previously, we hypothesized that the mutations in the HIF2α-CODD region disrupted the pVHL/HIF2α interface. This appeared to be true for most Class 1 mutants examined to date.

In a further data set the test system is pVHL. The settings on record: prolyl-hydroxylated HIF2α peptides; cited from earlier work.
Text: as §1

Data set [3] addresses Alexa 647 labeled PHD2 (catalytic / prolyl-hydroxylase domain, residues 181-426) (human) (UniProt Q9GZT9). The data set can be described thus: MST; 25 nM Alexa 647 labeled PHD2, unlabeled peptide in 16 two-fold dilutions; room temperature; MST Buffer 50 mM Tris-HCl pH 7.5, 1 mM NOG, 10 µM FeSO4, 5 mg/ml BSA mixed 1:1 with peptide in 50 mM Tris-HCl pH 8.0; 1:1 Kd model; triplicate.

The text below walks through data of article PMC10902354, “Deficiency in PHD2-mediated hydroxylation of HIF2α underlies Pacak-Zhuang syndrome” (Communications Biology, 2024).

“Also recorded” adds a separate entry of the source. Square brackets hold non-standard residues; d marks the D form. Hyp = O=C(O)[C@@H]1C[C@@H](O)CN1

T1 sequence (Q9GZT9 181-426): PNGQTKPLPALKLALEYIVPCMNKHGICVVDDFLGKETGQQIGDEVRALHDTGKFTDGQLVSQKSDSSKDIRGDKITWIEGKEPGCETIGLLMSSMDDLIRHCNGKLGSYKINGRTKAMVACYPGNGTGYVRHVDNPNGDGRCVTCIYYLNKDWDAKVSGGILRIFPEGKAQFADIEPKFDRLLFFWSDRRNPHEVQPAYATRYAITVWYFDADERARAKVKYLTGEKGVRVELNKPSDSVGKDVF
Alexa 647 labeled PHD2 (catalytic / prolyl-hydroxylase domain, residues 181-426) (human), sequence (Q9GZT9 181-426): as above

As for `CC[C@H](C)[C@H](NC(=O)[C@H](Cc1ccc(O)cc1)NC(=O)[C@@H]1CCCN1C(=O)[C@H](C)NC(=O)[C@H](CC(C)C)NC(=O)[C@@H](NC(=O)[C@H](CCC(=O)O)NC(=O)[C@H](CC(C)C)NC(=O)[C@H](CC(=O)O)NC(=O)[C@H](CC(C)C)NC(=O)[C@H](CCC(=O)O)NC(C)=O)[C@@H](C)O)C(=O)N1CCC[C@H]1C(=O)N[C@@H](CCSC)C(=O)N[C@@H](CC(=O)O)C(=O)NCC(=O)N[C@@H](CCC(=O)O)C(=O)N[C@@H](CC(=O)O)C(=O)N[C@@H](Cc1ccccc1)C(=O)N[C@@H](CCC(N)=O)C(=O)N[C@@H](CC(C)C)C(N)=O` [HIF2α WT], the “Binding to PHD2 (in words)” value in data set [1] (MST) is on record as “showing binding”. The Kd in data set [1] (read-out: Kd (MST-determined PHD2/HIFα-CODD complex dissociation constant)) was 34 ± 2 µM. Moreover, the “Aggregation of PHD2 in MST experiments” value in data set [2] is on record as “no aggrega?on”.

On to “HIF2α A530V: Class 1 mutant HIF2α-CODD peptide (Ac-ELDLETLVPYIPMDGEDFQL-NH2)”, for which the “PHD2 affinity / Kd compared with another peptide (in words)” value in data set [1] (MST, with NOG) is listed as “significant effect on PHD2 binding affinity; also recorded: more detrimental to the interaction than A530T”. The “Kd (MST-determined PHD2/HIFα-CODD complex dissociation constant)” value in data set [1] (MST) is given as “No binding”. In addition, in data set [1] (MST, target WT-PHD2(181-426), TargetConcentration 2.5e-8, ligand HIF2a-CODD peptide, MST-Power Medium, Excitation-Power 20 Nano - RED, hot region 19 to 20, unit of Kd not printed (doses of the same sheet are in M), Fig. 1c source data), the “Kd (Fit Results, Fit Model Kd)” value is recorded as 0.03648. For the same compound, the “PHD-mediated hydroxylation (in words)” value in the data set on PHD is recorded as “appeared to decrease PHD-mediated hydroxylation”. For the same compound, the “Binding affinity for pVHL (in words)” value in the data set on pVHL is on record as “no effect on pVHL binding”.

On to “HIF2α P531A: Class 1 mutant HIF2α-CODD peptide (Ac-ELDLETLAAYIPMDGEDFQL-NH2)”, for which, in data set [1] (MST), the “Kd (MST-determined PHD2/HIFα-CODD complex dissociation constant)” value is recorded as “No binding^a”. Moreover, in data set [2], the “Aggregation of PHD2 in MST experiments” value was “some evidence of aggrega?on at the highest concentra?on”.

As for “HIF2α WT-OH: synthetically hydroxylated WT HIF2α-CODD-OH peptide, negative control (Ac-ELDLETLA[Hyp]YIPMDGEDFQL-NH2; SMILES CC[C@H](C)[C@H](NC(=O)[C@H](Cc1ccc(O)cc1)NC(=O)[C@@H]1C[C@@H](O)CN1C(=O)[C@H](C)NC(=O)[C@H](CC(C)C)NC(=O)[C@@H](NC(=O)[C@H](CCC(=O)O)NC(=O)[C@H](CC(C)C)NC(=O)[C@H](CC(=O)O)NC(=O)[C@H](CC(C)C)NC(=O)[C@H](CCC(=O)O)NC(C)=O)[C@@H](C)O)C(=O)N1CCC[C@H]1C(=O)N[C@@H](CCSC)C(=O)N[C@@H](CC(=O)O)C(=O)NCC(=O)N[C@@H](CCC(=O)O)C(=O)N[C@@H](CC(=O)O)C(=O)N[C@@H](Cc1ccccc1)C(=O)N[C@@H](CCC(N)=O)C(=O)N[C@@H](CC(C)C)C(N)=O)”, in data set [1] (MST), the “Binding to PHD2 (in words)” value was “did not bind to PHD2” and the “Kd (MST-determined PHD2/HIFα-CODD complex dissociation constant)” value is on record as “No Binding”. Also, the “Binding to PHD2 (in words)” value in data set [1] (MST, listed as WT-OH HIF2α-CODD) was “no”. Moreover, in data set [2], the “Aggregation of PHD2 in MST experiments” value was “no ag grega?on”.

In data set [3], “HIF2α-CODD WT peptide (from UniProt Q99814 523-542)” returned a Kd of 34 µM.
